PMC7869511, “Computer-aided design of PVR mutants with enhanced binding affinity to TIGIT” (Cell Communication and Signaling : CCS, 2021)
Where two headings read alike, the source gives them in different places.

Columns and labels:
PVR (Homo sapiens) [1] = target: PVR (Homo sapiens) (UniProt P15151); conditions: cited from earlier work
nectin-2 (Homo sapiens) = nectin-2 (Homo sapiens) (UniProt Q92692); conditions: cited from earlier work
PVR (Homo sapiens) [2] = target: PVR (Homo sapiens) (UniProt P15151); conditions: cited from earlier work; remark: listed apart in the source
[3] = target: T1, wild-type PVR fused with EGFP, extracted membrane protein (human), P15151; test: MST; extracted membrane protein of PVR or PVR mutants fused with EGFP (quantified by EGFP fluorescence) as the fluorescent partner; TIGIT-His serially diluted two-fold from 25 μM to 0.000153 μM; conditions: remark: other sources report otherwise
T1 chain: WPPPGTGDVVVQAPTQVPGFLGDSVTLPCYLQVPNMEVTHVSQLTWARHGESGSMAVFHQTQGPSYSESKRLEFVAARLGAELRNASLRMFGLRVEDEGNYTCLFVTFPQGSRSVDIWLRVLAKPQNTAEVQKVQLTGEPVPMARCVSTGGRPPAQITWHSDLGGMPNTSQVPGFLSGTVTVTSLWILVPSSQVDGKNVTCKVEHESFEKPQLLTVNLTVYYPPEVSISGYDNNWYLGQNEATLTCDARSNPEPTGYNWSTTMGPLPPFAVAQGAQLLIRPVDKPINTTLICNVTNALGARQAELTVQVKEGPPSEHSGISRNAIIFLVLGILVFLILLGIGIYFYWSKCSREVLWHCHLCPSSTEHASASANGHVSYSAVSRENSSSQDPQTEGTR

[4] = target: T2, PVR mutant G131V fused with EGFP, extracted membrane protein (human, UniProt P15151 21-417, G131V); test: as above; conditions: one partner purified
T2 construct: poliovirus receptor (PVR, CD155), human; Probably the full-length membrane protein; also called PVRG131V; source: membrane protein extracted, quantified by EGFP fluorescence
T2 sequence (looked up): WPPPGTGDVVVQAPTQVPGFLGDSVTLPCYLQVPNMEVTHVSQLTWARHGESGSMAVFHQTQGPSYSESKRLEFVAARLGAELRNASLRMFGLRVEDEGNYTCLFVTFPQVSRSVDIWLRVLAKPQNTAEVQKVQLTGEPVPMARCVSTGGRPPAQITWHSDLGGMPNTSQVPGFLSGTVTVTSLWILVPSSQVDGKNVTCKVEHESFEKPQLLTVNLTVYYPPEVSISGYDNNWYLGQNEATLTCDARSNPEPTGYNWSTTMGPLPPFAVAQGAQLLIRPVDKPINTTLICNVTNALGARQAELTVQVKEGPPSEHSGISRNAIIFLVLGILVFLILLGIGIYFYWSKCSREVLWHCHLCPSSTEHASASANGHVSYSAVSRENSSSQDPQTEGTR

[5] = target: T3, PVR mutant S132Q fused with EGFP, extracted membrane protein (human, UniProt P15151 21-417, S132Q); test: as above; conditions: one partner purified
T3 construct: poliovirus receptor (PVR, CD155), human; Probably the full-length membrane protein; also called PVRS132Q; source: membrane protein extracted, quantified by EGFP fluorescence
T3 sequence (looked up): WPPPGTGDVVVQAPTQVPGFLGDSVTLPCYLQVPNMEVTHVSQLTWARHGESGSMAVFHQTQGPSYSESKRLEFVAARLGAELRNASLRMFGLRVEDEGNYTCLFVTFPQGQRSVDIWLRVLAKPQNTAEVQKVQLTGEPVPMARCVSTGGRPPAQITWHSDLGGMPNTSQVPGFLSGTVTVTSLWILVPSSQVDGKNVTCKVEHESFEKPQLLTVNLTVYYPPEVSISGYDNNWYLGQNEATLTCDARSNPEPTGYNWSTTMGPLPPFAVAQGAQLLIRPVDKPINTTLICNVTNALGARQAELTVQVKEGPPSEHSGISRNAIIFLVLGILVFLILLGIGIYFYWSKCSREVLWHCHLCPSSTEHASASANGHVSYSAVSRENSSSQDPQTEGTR

[6] = target: T4, PVR mutant S72R fused with EGFP, extracted membrane protein (human, UniProt P15151 21-417, S72R); test: as above; conditions: one partner purified
T4 construct: poliovirus receptor (PVR, CD155), human; Probably the full-length membrane protein; also called PVRS72R; source: membrane protein extracted, quantified by EGFP fluorescence
T4 sequence (looked up): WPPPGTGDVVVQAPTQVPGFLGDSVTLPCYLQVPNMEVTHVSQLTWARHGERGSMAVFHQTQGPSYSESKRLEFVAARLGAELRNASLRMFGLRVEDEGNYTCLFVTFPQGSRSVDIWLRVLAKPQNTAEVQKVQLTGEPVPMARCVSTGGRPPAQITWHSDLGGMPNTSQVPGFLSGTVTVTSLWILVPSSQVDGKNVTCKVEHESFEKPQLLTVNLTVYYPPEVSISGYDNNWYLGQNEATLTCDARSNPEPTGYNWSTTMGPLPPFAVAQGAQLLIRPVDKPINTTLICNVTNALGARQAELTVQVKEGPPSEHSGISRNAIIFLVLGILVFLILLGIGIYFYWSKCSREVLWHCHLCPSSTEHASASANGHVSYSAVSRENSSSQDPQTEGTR

[7] = target: T5, PVR mutant S72W fused with EGFP, extracted membrane protein (human, UniProt P15151 21-417, S72W); test: as above; conditions: one partner purified
T5 construct: poliovirus receptor (PVR, CD155), human; Probably the full-length membrane protein; also called PVRS72W; source: membrane protein extracted, quantified by EGFP fluorescence
T5 sequence (looked up): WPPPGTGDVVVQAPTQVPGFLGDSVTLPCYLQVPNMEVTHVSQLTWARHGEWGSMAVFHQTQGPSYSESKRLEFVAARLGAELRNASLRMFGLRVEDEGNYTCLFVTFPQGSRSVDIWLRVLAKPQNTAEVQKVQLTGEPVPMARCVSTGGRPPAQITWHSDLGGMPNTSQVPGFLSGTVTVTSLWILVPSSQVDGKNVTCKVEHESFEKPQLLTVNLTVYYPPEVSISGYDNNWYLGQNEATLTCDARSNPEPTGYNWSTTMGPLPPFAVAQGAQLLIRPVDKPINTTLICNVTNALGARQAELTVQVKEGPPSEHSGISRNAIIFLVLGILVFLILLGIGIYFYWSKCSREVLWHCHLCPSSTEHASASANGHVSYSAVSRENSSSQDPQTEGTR

Chain of nectin-2 (Homo sapiens) (Q92692 32-360): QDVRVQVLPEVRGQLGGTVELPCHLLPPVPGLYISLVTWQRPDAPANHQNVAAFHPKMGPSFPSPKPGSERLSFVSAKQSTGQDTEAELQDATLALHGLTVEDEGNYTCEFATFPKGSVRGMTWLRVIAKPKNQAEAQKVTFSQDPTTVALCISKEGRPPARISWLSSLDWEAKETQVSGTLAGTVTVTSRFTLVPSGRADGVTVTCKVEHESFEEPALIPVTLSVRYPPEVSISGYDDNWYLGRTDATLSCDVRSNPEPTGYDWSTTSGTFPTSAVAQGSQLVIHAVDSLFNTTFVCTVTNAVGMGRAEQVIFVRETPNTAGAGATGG

## TIGIT (from UniProt Q495A1)
PVR (Homo sapiens) [1]
  Kd: 3.2 µM
nectin-2 (Homo sapiens)
  Kd: 5.8 µM

## CD96 (from UniProt P40200)
PVR (Homo sapiens) [2]
  Kd: 10.2 µM

B1: TIGIT-His eukaryotic protein, Q495A1 22-244 (receptor)
chain: MMTGTIETTGNISAEKGGSIILQCHLSSTTAQVTQVNWEQQDQLLAICNADLGWHISPSFKDRVAPGPGLGLTLQSLTVNDTGEYFCIYHTYPDGTYTGRIFLEVLESSVAEHGARFQIP
modifications: here or on the partner: expressed in eukaryotic cells (glycosylated); His tag omitted; construct limits not given, so the mature extracellular domain (UniProt topology) is used by convention
[3]
  Kd: 1.15 µM

B2: TIGIT-His eukaryotic protein (receptor)
chain: MMTGTIETTGNISAEKGGSIILQCHLSSTTAQVTQVNWEQQDQLLAICNADLGWHISPSFKDRVAPGPGLGLTLQSLTVNDTGEYFCIYHTYPDGTYTGRIFLEVLESSVAEHGARFQIP
modifications: expressed in eukaryotic cells (glycosylated); His tag omitted; construct limits not given, so the mature extracellular domain (UniProt topology) is used by convention
[4]
  Kd: 0.016 µM
[5]
  Kd: 0.058 µM
[6]
  Kd: 0.549 µM
[7]
  Kd: 0.328 µM
